Test results published in US20180170997A1 (NATIONAL CANCER CENTER, published 2018).

Assays:
[1] = target: T1, AITR on AITR-overexpressed Jurkat cells (CD5L-AITR-TM-ECD) (human, UniProt Q9Y5U5 26-183, limits assumed); test: flow cytometry on AITR-overexpressed Jurkat cells
T1 construct: domain: transmembrane domain (TM)-ECD; also called pcDNA3.1(+)/CD5L-AITR-TM-ECD
T1 sequence (looked up): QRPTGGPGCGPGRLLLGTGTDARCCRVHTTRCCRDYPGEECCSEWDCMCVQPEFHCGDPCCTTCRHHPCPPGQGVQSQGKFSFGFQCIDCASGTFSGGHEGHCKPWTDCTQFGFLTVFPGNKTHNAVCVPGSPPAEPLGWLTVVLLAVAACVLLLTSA
Experimental: In the flow cytometry experiment, the present inventors used fluorochrome-conjugated antibodies against CD4, CDS, CD11c, IFN-γ, Foxp3, CTLA-4, CD62L, CD45RO, CD45RA (BD Bioscience), CD19, CD56, CD14, CD127, IL-4, IL-17A, GATA-3, T-bet, RORγt (ebioscience, San Diego, Calif.), and BDCA-2 (Miltenyi Biotec). […] Intracellular level of cytokines was measured after 5 hour-long pre-incubation with 50 ng/ml phorbol 12-myristate 13-acetate (PMA), 10 μg/ml ionomycin, and 10 μg/ml Brefeldin A (Sigma-Aldrich, St Louis. Mo.). FACSCalibur flow cytometer (BD Bioscience) was used for all of the flow cytometry analysis and WinMDI software (Ver. 2.9, Scripps. Institute) was used for data analysis.
For generating AITR-overexpressing cells, the gene fragment encoding AITR-transmembrane domain (TM)-ECD was inserted in-frame with CD5L sequence in a mammalian vector pcDNA3.1(⁺), i.e. pcDNA3.1(⁺)/CD5L-AITR-TM-ECD. Then pcDNA3.1(⁺)/Empty vector or pcDNA3.1(⁺)/CD5L-AITR-TM-ECD vector was transient transfected into Jurkat cells by electroporation. AITR expression on cell surface was detected by staining with biotin-conjugated anti-AITR mAb.

[2] = target: T2, activation-inducible tumor necrosis factor receptor (AITR) on human T cells (human, UniProt Q9Y5U5 26-241); test: flow cytometry on stimulated PBMC subsets
T2 construct: whole, on cells; also called GITR; TNFRSF18
T2 sequence (looked up): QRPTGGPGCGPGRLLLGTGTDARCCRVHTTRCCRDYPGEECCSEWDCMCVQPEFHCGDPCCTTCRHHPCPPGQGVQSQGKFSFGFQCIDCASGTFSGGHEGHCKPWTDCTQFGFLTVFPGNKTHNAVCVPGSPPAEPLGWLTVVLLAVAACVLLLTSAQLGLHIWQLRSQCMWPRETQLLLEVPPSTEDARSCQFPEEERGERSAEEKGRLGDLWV

B1: anti-AITR mAb B32 (antibody, V domains shown)
VH: EVQLLESGGGLIQPGGSLRLSCAASGFTFSTYGMSWVRQAPGKGLEWVSGITGSAGGGSTNYADSVKGRFTISRDNSKNTLYLQMNSLRAEDTAVYYCAKGYSSNWRSAFDIWGQGTMVTVSS
VL: SYELMQPPSVSVSPGQTAGITCSGDALPKQYAYWYQQRPGQAPVLLIYKDTERPSGIPERFSGSSSGTTVTLTISGVQAEDEADYYCQSADSSGTYPVFGGGTKLTVL
notes: also called clone B32
binding result [1]: binds
binding result [2]: binds
